Data on 53 sequences can be found in the supplement of paper PMC10567573.

± gives the standard deviation.

The series can be described thus: protein stability index of a GFP-peptide fusion (GPS, HEK-293T) (PSI 1-6); higher = more stable.
Where [1] appears, read: treatment: DMSO, c terminus: a fixed tail appended.
Where [2] appears, read: treatment: MLN4924 1 uM, 8 h, c terminus: a fixed tail appended.
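Further: 24-mer peptide tiles fused after GFP, lentivirally expressed, FACS-sorted into six equal bins by GFP/DsRed ratio, decoded by Illumina sequencing, PSI is the read-weighted mean bin number.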

As to TSASLLNAGLSHTEYQIVTDPGDV [SLC2A12], the protein stability index was 4.42 ± 0.16 under setting [1] and 4.76 ± 0.15 under setting [2].
On the same counts, the results for DEGRLLLEFDLLIFSFGQLPLALV [SOAT2] are 3.16 ± 0.11 and 2.81 ± 0.46.
VALGHAYHPEEFVCSQCGKVLEEG [PDLIM7]: the protein stability index runs as follows: under setting [1], 3.93 ± 0.34; under setting [2], 4.03 ± 0.11.
On the same counts, the results for VCQKLLLDAMNYHLMPFRQHCRQS [KLHL14] are 3 ± 0.47 and 2.99 ± 0.62.
Sequence TATFAVHFMVLSKSGPGDGFFSSA [POMT2] displayed a protein stability index under setting [1] of 2.84 ± 0.36 and a protein stability index under setting [2] of 2.93 ± 0.51.
In the case of SGSGSGPGCGSVPGSGSGPGPGSG [SPAG8], the protein stability index runs as follows: under setting [1], 5.08 ± 0.24; under setting [2], 5.12 ± 0.12.
On the same counts, the results for RSLQDLARIAIRGTIKKIIHQETV [PCMTD2] are 2.39 ± 0.32 and 2.52 ± 0.65.
The like results for DIDVQLSSELTDSLRTLKPEGNIL [NOP53] were, in that order, 4.1 ± 0.29 and 4.06 ± 0.36.
The like results for ELLGVHPGASTEEVKRAFFSKSKE [DNAJC4] were, in that order, 3.8 ± 0.19 and 4.08 ± 0.42.
With PCKTRDDEPVCGRPLGIRAGPNGT [APMAP], the protein stability index reads like this: under setting [1], 3.9 ± 0.36; under setting [2], 4.14 ± 0.093.
On the same counts, the results for TPPTPAPTSGIVGALMEVMQKRSK [WASL] are 4.55 ± 0.12 and 4.65 ± 0.25.
The like results for TQHKFICEQCGKCKCGECTAPRTL [SPRY1] were, in that order, 4 ± 0.22 and 3.87 ± 0.18.
With ELPPSLRAPPPGGWPLQPRVQWG [ZMAT5], the protein stability index (treatment: DMSO, c terminus: native) worked out at 2.75 ± 0.33 and the protein stability index (treatment: MLN4924 1 uM, 8 h, c terminus: native) is 2.82 ± 0.099.
Regarding METQAEQQELETLPTTKMAQTNPT [CRYBA1], the protein stability index was 5.24 ± 0.3 under setting [1] and 5.3 ± 0.29 under setting [2].
On the same counts, the results for LFCEVSVVQDSVNISGHTNTNTLK [SPOPL] are 2.76 ± 0.4 and 2.84 ± 0.67.
The like results for TGACGEAMAAAEGSSGPAGLTLGR [SEPHS2] were, in that order, 3.78 ± 0.082 and 3.87 ± 0.055.
The like results for LGWAQPCDVWSIGCILFEYYRGFT [CLK3] were, in that order, 3.31 ± 0.71 and 2.93 ± 1.5.
EKLATDTSTFEATSEGTLELQQRN [ZNF232]: the protein stability index was 5.29 ± 0.22 under setting [1] and 5.41 ± 0.14 under setting [2].
As for RAVVEAVHRLDLILCNKTAYQEVF [SMG5], the protein stability index is, setting by setting: under setting [1], 2.92 ± 0.43; under setting [2], 2.92 ± 0.85.
With VYKSLLLLAYLIRNGSERVVTSAR [CLINT1], the protein stability index under setting [1] is 2.57 ± 0.51 and the protein stability index under setting [2] was determined as 2.59 ± 0.39.
The like results for TTQSAEVGAAETTLTELRRTVQSL [KRT18] were, in that order, 4.63 ± 0.22 and 4.55 ± 0.4.
On the same counts, the results for GTSDYDDVLSCEYYSPILDQWTPI [KLHL13] are 2.41 ± 0.33 and 2.34 ± 0.19.
On the same counts, the results for EIRDWRGPQLEGEKDWGLEGYVWR [ZSWIM9] are 3 ± 0.56 and 3.29 ± 0.57.
In the case of VPAPQPPVTKPLFPSAGQAQAAVQ [ZNF207], the protein stability index turned out to be 4.39 ± 0.41 under setting [1] and 4.59 ± 0.18 under setting [2].
The like results for SLRDKVLQLQKGSDTEAQCEVMQE [INTS3] were, in that order, 5.11 ± 0.23 and 5.08 ± 0.2.
The like results for KQLEFCFSRENLSKDLYLISQMDS [LARP4] were, in that order, 2.4 ± 0.2 and 2.33 ± 0.28.
On the same counts, the results for APAFRLSLKAKVSDNMSHLMVDFA [FSD1] are 2.28 ± 0.1 and 2.25 ± 0.12.
On to ENLDEAREQKEKSPPDQPAVPHPP [ADD1], for which the protein stability index runs as follows: under setting [1], 5.61 ± 0.15; under setting [2], 5.66 ± 0.28.
On the same counts, the results for RKISSLSFTLEEEEEGGEEEEEAA [FAM50A] are 5.53 ± 0.26 and 5.33 ± 0.26.
For LIQPQDQSCWAFLPDLCLCRVFWW [FBXO39], the protein stability index reads like this: under setting [1], 2.88 ± 0.78; under setting [2], 2.9 ± 0.55.
On the same counts, the results for RGNLSILAAVLVEPKLHTPMYFFL [OR3A1] are 2.86 ± 0.46 and 3.06 ± 0.57.
The like results for TMELRNYFSLYCLHQETQLIHVYL [SNX8] were, in that order, 3.41 ± 0.67 and 2.94 ± 0.72.
The like results for HTEERPYECNHCGKGFRHSSSLAQ [ZNF8] were, in that order, 3.58 ± 0.3 and 3.79 ± 0.27.
In the case of LDDSTVARELAITDSEHSDAEVSC [RETREG3], the protein stability index runs as follows: under setting [1], 5.52 ± 0.23; under setting [2], 5.47 ± 0.24.
The like results for SNCCFTFSGHFLCTSSWDKNLKIW [WDR88] were, in that order, 2.22 ± 0.97 and 2.3 ± 0.4.
On the same counts, the results for FATFCGGLAANGALQRLDLRNNQI [LRRC45] are 2.36 ± 0.19 and 2.37 ± 0.23.
On the same counts, the results for TPTLKVFMHENLYFTNRKVNSVCW [DCAF4] are 2.26 ± 0.4 and 1.95 ± 0.22.
In the case of VAVLEQEIKDKDQLVLRTKEAFDT [SASS6], the protein stability index reads like this: under setting [1], 4.57 ± 0.21; under setting [2], 4.67 ± 0.41.
The like results for PKLFCPKNRSFDIDAIYSVIDDAK [PLD5] were, in that order, 3 ± 0.62 and 2.89 ± 0.27.
The like results for LNPGFQDATLSLKQTILDKEEKQR [TTC32] were, in that order, 4.94 ± 0.15 and 4.98 ± 0.17.
The like results for RILLRMTLGREVMSPLQAMSSYTV [NLN] were, in that order, 2.67 ± 1.1 and 2.45 ± 0.32.
Consider SDSEANGFAERRIDKFGFIVGSQG [TBC1D10A], for which the protein stability index by setting is: under setting [1], 4.14 ± 0.35; under setting [2], 4.07 ± 0.34.
Turning to ETNRLGRLINHSKCGNCQTKLHDI [KMT5A], the protein stability index by setting is: under setting [1], 2.57 ± 0.36; under setting [2], 2.75 ± 0.23.
On the same counts, the results for NYGADTNTRNYEGQTPLAVSISIS [ASB7] are 2.65 ± 0.45 and 2.77 ± 0.48.
The like results for SLPASSYSQDPVYANGGLNYSYRG [NOL4L] were, in that order, 3.44 ± 0.12 and 3.62 ± 0.15.
The like results for TEDGKLDIWSKSNYQVFQKVTDHA [MED27] were, in that order, 3.67 ± 0.27 and 3.77 ± 0.42.
As to EAAQVVPDGLGLDEAREEEGDREV [TRIB3], the protein stability index by setting is: under setting [1], 5.63 ± 0.15; under setting [2], 5.43 ± 0.45.
On the same counts, the results for LCATDFKFAMYPPSMIATGSVGAA [CCND2] are 2.38 ± 0.23 and 2.38 ± 0.29.
The like results for VDNHFNLLTTSPVFPHYIEKPLGR [TRIM43] were, in that order, 3.05 ± 0.4 and 2.96 ± 0.7.
The like results for FIPAKTGKDVATQILEGELFDFDL [RSPH3] were, in that order, 2.7 ± 0.48 and 2.89 ± 0.56.
For GSEVVPVISPMYQLHKPLAEGTPR [IKZF1], the protein stability index is 3.56 ± 0.16 under setting [1] and 4.21 ± 0.49 under setting [2].
The like results for YTGRAPNLDKMADNLLAAADKYAL [SPOPL] were, in that order, 2.78 ± 0.42 and 3.06 ± 0.5.
On the same counts, the results for AASSYSFSDLNSTRGDADMYDLPK [EMD] are 4.43 ± 0.23 and 4.53 ± 0.26.
